In paper PMC3760305, “Mimicking Protein–Protein Interactions through Peptide–Peptide Interactions: HIV-1 gp120 and CXCR4” (Frontiers in Immunology, 2013) one finds ratio to parent and Kd data, which are given here for 24 substances.

For orientation: Kd means the free concentration of one partner at which half of the binding sites on the other are occupied at equilibrium, for simple one-to-one binding. Low values mean a tighter complex, high ones a looser complex.

Test [1] concerns the target CXCR4 mimetic peptide CX4-M1. Kind of test: direct ELISA. To be noted: parent: 1; read off a plot.
Test [2] concerns the target CXCR4 mimetic peptide CX4-M1. Kind of test: SPR; Biacore X100, Biotin CAPture Kit; CX4-M1 (2 μM) bound to streptavidin; gp120 8–0.5 nM; HBS-N (10 mM HEPES, 150 mM NaCl, pH 7.4), 0.05% Tween 20, 2.5 mM MgCl2; no sCD4. (In general: SPR reads the build-up and loss of mass on a sensor chip optically.)
In test [3] the target is CXCR4 mimetic peptide CX4-M1. Kind of test: SPR; Biacore X100, Biotin CAPture Kit; CX4-M1 (2 μM) bound to streptavidin; V3 loop peptides 5–0.3 μM; HBS-N (10 mM HEPES, 150 mM NaCl, pH 7.4), 0.05% Tween 20, 100 mM MgCl2; no sCD4.

On to V3 loop peptide V3_(HxBc2) N325A, for which, in test [1], the ratio to parent was 1.3.
With V3 loop peptide V3_(HxBc2) G312A, in test [1], the ratio to parent is 0.82.
For V3 loop peptide V3_(HxBc2) M326A, the ratio to parent in test [1] came to 1.3.
Same read-out and setting: with V3 loop peptide V3_(HxBc2) T319A the figure was 0.63.
Gp120_(IIIB) (natural protein): the Kd in test [2] was 100 nM.
Turning to V3 loop peptide V3_(HxBc2) P313A, the ratio to parent in test [1] amounted to 0.67.
As to gp120MN (natural protein), the Kd in test [2] worked out at 700 nM.
Regarding V3 loop peptide V3_(HxBc2) I323A, the ratio to parent in test [1] was 0.53.
Regarding V3 loop peptide V3_(HxBc2) I307A, the ratio to parent in test [1] is 0.18.
“gp120_(HxBc2) (from UniProt P04578 33-511) (natural protein)” showed a Kd in test [2] of 200 nM.
In the case of V3 loop peptide V3_(HxBc2) I320A, the ratio to parent in test [1] was 0.16.
Turning to V3 loop peptide V3_(HxBc2) R311A, the ratio to parent in test [1] is 1.4.
V3 loop peptide V3_(HxBc2) G321A: in test [1], the ratio to parent was 0.7.
With V3 loop peptide V3_(HxBc2) K322A, in test [1], the ratio to parent was determined as 2.1.
Regarding V3 loop peptide V3_(HxBc2) R315A, the ratio to parent in test [1] is 0.46.
With V3 loop peptide V3_(HxBc2) F317A, the ratio to parent in test [1] was 0.16.
On to V3 loop peptide V3_(HxBc2) R308A, for which the ratio to parent in test [1] is 0.57.
Turning to V3 loop peptide V3_(HxBc2) Q310A, the ratio to parent in test [1] was 1.
On the same count and under the same terms, the figure for V3 loop peptide V3_(HxBc2) G324A is 1.4; for V3 loop peptide V3_(HxBc2) R306A it is 0.78; for V3 loop peptide V3_(HxBc2) G314A it is 0.86.
As for V3 loop peptide V3_(HxBc2), the Kd in test [3] was 300 nM.
With V3 loop peptide V3_(HxBc2) V318A, the ratio to parent in test [1] worked out at 0.41.
Same read-out and setting: the figure for V3 loop peptide V3_(HxBc2) I309A is 0.13.
